Drawing on the supplement of paper PMC12042874, this text covers amyloid nucleation score for 131 substances.

± gives the uncertainty stated by the source.

The nature of the data set: amyloid nucleation score (Sup35N fusion, yeast selection) (log enrichment); library NNK3; higher = more nucleation; inactive = no reads after selection. The method, boiled down:
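Peptides of 20 random codons fused to Sup35N were expressed in psi-negative yeast, induced 24 hours with 100 μM copper sulfate, then grown 7 days at 30°C on medium lacking adenine and uracil. Input and output plasmid inserts were Illumina-sequenced. Nucleation score is the DiMSum log enrichment of output over input reads, centred on the mode score of non-aggregating sequences, excluding sequences with under 100 input reads. Random libraries had three technical output replicates.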
Turning to ILKGL, the amyloid nucleation score entry is “inactive”. The value for ILLIVL was 1.68 ± 0.061; that for ILPFRWIVY was “inactive”.

Regarding ILQTRKRVNVLNIVIWQIAF, the amyloid nucleation score turned out to be 1.09 ± 0.18. As to ILSFEVWFGLWSTCGLYPHK, the amyloid nucleation score entry is “inactive”. In the case of ILSYARTFVLIDNKVGMLR it was “inactive”; in that of ILVFVFSLRRIFAYMAVMSG, “inactive”; in that of ILWDKRRSYYCIMGAIYIVR, “inactive”. The substance ILWQYQTCC had an amyloid nucleation score of -0.457 ± 0.73. In the case of ILYDDSCLFVTASWTSYVFV it was 1.4 ± 0.073; in that of ILYFDVTISV, “inactive”; in that of IMCRLMSKVYTMPQYEILSF, “inactive”.

Consider IMDDTSQSNRCYYEKVLCRG, for which the amyloid nucleation score was 1.34 ± 0.092. Consider IMHGSNMVRRGLVQY, for which the amyloid nucleation score entry is “inactive”.

On to IMLGRANSIYMH, for which the amyloid nucleation score entry is “inactive”. The value for IMMMNLKM was 1.92 ± 0.079; that for IMPPEFVFIFHRMNGHYLGF was “inactive”. As to IMRSY, the amyloid nucleation score result is “inactive”. The value for INAGF was “inactive”; that for INCLDFYTTVYNTRSWIFVH was “inactive”; that for INFNLVHRLEVFWRVI was “inactive”. Take INFTRSQYRFLIWYASQKMS: the amyloid nucleation score entry was “inactive”. The value for INFYVSFYIIVTCYVVAHCV was 1.32 ± 0.15; that for INGDNAPGYYYIMMIPRDIH was 0.858 ± 0.12; that for INHLSWCPVYFYFWNPVYLR was 1.49 ± 0.11.

Regarding INLFTAYAVSL, the amyloid nucleation score entry was “inactive”.

For INNLYDVQRGIADFWKSWLV, the amyloid nucleation score entry was “inactive”.

Substance INSSILGSCLWWFLFCF displayed an amyloid nucleation score of 1.2 ± 0.12. INTVLLGYS: the amyloid nucleation score result was “inactive”.

In the case of INVDWFSPFGVLKNSSK, the amyloid nucleation score result was “inactive”. In turn, INVVIRSSHFECTGC gave an amyloid nucleation score of 1.15 ± 0.11. The value for IPNDYAVAYAEGQLLVCELK was “inactive”; that for IPSIWMGISRK was “inactive”.

Consider IPSTMRDDFAYTNCPNNSFL, for which the amyloid nucleation score result was “inactive”. In the case of IPSWELISGHWS it was “inactive”; in that of IPVSHVAMNGECGWVSDIKH, “inactive”; in that of IPYRLVGMLTVVTCRTSKLC, “inactive”.

As for IQAAEVWMTAPFGFDMEGGR, the amyloid nucleation score result was “inactive”. The value for IQASWFNWKWLL was “inactive”; that for IQDHFELFTNVGSYFQIQPL was “inactive”. IQHSFCGRNSDLPLNVWLMW: the amyloid nucleation score entry was “inactive”. The value for IQISYNWW was 0.75 ± 0.3; that for IQMSNLNNTSLQVRRPRPCV was “inactive”. The value for IQSKRRPSDCLPKS was “inactive”. For the substance IQSSYSMYIEWL, the amyloid nucleation score result was “inactive”. In the case of IQTQTGTLVSRPLQPTAVVR it was -0.007 ± 0.82; in that of IRDYVFRLYYRLNCMIRKRG, “inactive”; in that of IRFSGIVAVMISQGGSRREC, 2.5 ± 0.08.

For the substance IRFVLYISGILSCWFNRWNN, the amyloid nucleation score result was “inactive”. Consider IRGSSKTDSKRTWVK, for which the amyloid nucleation score was -0.364 ± 0.7. In the case of IRKSFVEKMLPLPFSLAAIG it was 0.234 ± 0.44; in that of IRLCLLSIMWLNGWLSAIHA, “inactive”; in that of IRLDSYLDNMSMLLCKYWFC, “inactive”. As for IRLHLLLGFVV, the amyloid nucleation score result is “inactive”. In the case of IRLPIGQGLC it was “inactive”; in that of IRLWQEHWNWRGRSLFFRWC, “inactive”.

With IRMHGWPYRLVREICFNGFF, the amyloid nucleation score is 0.028 ± 0.5. The value for IRMQNLRFGSLKLAGFIMCD was “inactive”; that for IRQGNVYK was “inactive”.

For IRRLDEVNEWANSYKLWKKQ, the amyloid nucleation score entry is “inactive”. For the substance IRSNGTFTPWEPLSVIWCTK, the amyloid nucleation score result was “inactive”.

Regarding IRSYERVSRLTGVVGSTSVD, the amyloid nucleation score entry is “inactive”. In the case of IRVIISGVLGTELKNALAKY it was “inactive”.

Take IRVMNEMYLFLNRVYFAFSY: the amyloid nucleation score entry was “inactive”. The value for IRYLYLFVYSSRLSHIPGKN was “inactive”; that for IRYSGFPYPSNLWHTSATLY was “inactive”; that for ISCMVFANHR was “inactive”. The value for ISCPLYQGMGHLIH was “inactive”; that for ISDDICSFVAHSAILFGRQM was “inactive”.

Regarding ISESN, the amyloid nucleation score entry was “inactive”. The value for ISHFLE was “inactive”. The value for ISIGYEQFLDSCNLLSIYLT was “inactive”; that for ISKSDLSLFN was “inactive”; that for ISLKSLFVFHNLSVDIWVQR was “inactive”. Consider ISMLMFDLA, for which the amyloid nucleation score entry was “inactive”. The value for ISNGVNPGVFDAVSWLDWAV was “inactive”; that for ISPSYVQSDQFIGRTHVS was “inactive”. The value for ISQFLGKFTFCNSALHFFGA was “inactive”. In the case of ISQHMANFYNSVVVVCILED it was 3.19 ± 0.075; in that of ISQLIEHRRAESCLRPKGRQ, “inactive”; in that of ISTDDKIIGST, “inactive”. Regarding ISTLGYFAELVI, the amyloid nucleation score result is “inactive”. As to ISWYVWRVMYMSCGWSIVFR, the amyloid nucleation score result is “inactive”. In the case of ITARLVTS it was “inactive”. In the case of ITIGTTIGDLSYR it was “inactive”. Regarding ITKKRYNCRMFLIT, the amyloid nucleation score entry is “inactive”. In the case of ITLLCTLYYGQPTLGVDLVL it was “inactive”; in that of ITMLMLATVKYSFYADLRFL, “inactive”; in that of ITRTSDLFMLGSLINRGIAA, “inactive”. Take ITTCLMYHRLCECGSKVLGL: the amyloid nucleation score entry was “inactive”. IVCNIN had an amyloid nucleation score of -0.036 ± 0.55.

For IVFLLLVRLLVFIP, the amyloid nucleation score result was “inactive”. With IVGAAVRGKMRFSMSRAWLG, the amyloid nucleation score result is “inactive”. The value for IVHVSLWKMSISPIWEWSMI was 0.006 ± 0.37.

In the case of IVKVLNGFKTRVSSVCVTNG, the amyloid nucleation score result was “inactive”.

Consider IVLNIMHNVSHFLGLYVEG, for which the amyloid nucleation score entry is “inactive”.

In turn, IVQTLYNLAAVHSTWAIRFQ had an amyloid nucleation score of -0.142 ± 0.4.

IVQYELTACDESAVKWIGMP: the amyloid nucleation score entry was “inactive”.

IVRMNQCSMGCLRVAMSSS: the amyloid nucleation score entry is “inactive”. The value for IVRRGLKMCG was “inactive”; that for IVSLALSFFLDHSQVFCLNS was 1.36 ± 0.15; that for IVSMDQESTLQWNVPGYVLL was “inactive”.

Regarding IVSNTTPTQPTSVLVNYSVR, the amyloid nucleation score entry is “inactive”.

For IVVANMWLLKKNYLRMELFA, the amyloid nucleation score entry is “inactive”.

In the case of IVYGPCYTLYVRCSVFSLSK, the amyloid nucleation score came out at 2.31 ± 0.063. The value for IWISLGAMIMFMVN was “inactive”; that for IWNKFGIIFYVVYYSIRTNL was “inactive”; that for IWVGRTDFWFWHVTGEDCLG was “inactive”. In the case of IWWNHCEHHMLRSSLRVRAY it was “inactive”; in that of IWWVSK, “inactive”; in that of IYAGS, -0.633 ± 0.96. The value for IYCPNIILLVKRHGVFQMFL was 2.3 ± 0.072; that for IYDCNRDIGDVLTSSDPPHA was “inactive”. Take IYDSRWTTNDSSCTTVFTEQ: the amyloid nucleation score result is “inactive”. The value for IYILYVMDF was “inactive”; that for IYIRVRMDEFLMSVTTIARG was “inactive”; that for IYKKNMAGRVDQKIVTQDPP was “inactive”. The value for IYLLGMYIKACSG was “inactive”. The value for IYNPRSNINQFPDTFEPDQM was “inactive”.

With IYSIKSV, the amyloid nucleation score is -0.357 ± 0.68. In the case of IYSNSLACDRSGFFKASSSQ it was -0.998 ± 1.2; in that of IYSNSPDRPEFHCNSRCGDG, “inactive”; in that of IYSRELHVCAVSIADFIWFW, “inactive”.

As for IYSVTMTRHVFFNGFQVQLV, the amyloid nucleation score entry was “inactive”. In the case of IYSYTVFPSFGGMLCMVLVG it was “inactive”; in that of IYVHNYFISVVIMVYFTMLP, “inactive”; in that of IYVLNLMLFVFCRNVLCDGY, “inactive”. The value for IYVVRIYVSWVNILHALVYS was “inactive”; that for KACWLYLIFIFFGWVYSKTI was 0.745 ± 0.25; that for KALTRRIILHWK was 0.711 ± 0.28. The value for KANRFRVVMLGVDGVCAFQS was “inactive”.
